Data reported in patent US20070117180A1, “Enzyme producing plasma protein fragment having inhibitory activity to metastasis and growth of cancer and plasma protein fragment produced by fragmentation by said enzyme” (priority 1998, published 2007).

How the values were obtained:
Lung cancer cells (LL/2) = assay: Test for inhibitory activity to metastasis and growth of cancer (number of nodes on the lung surface); assay type: in vivo, mice
Method: The protein fragments prepared as described above were dissolved in a physiological saline and used as a sample for animal tests. As a system for estimating an inhibitory effect to growth of metastasized cancerous focus, cancer capable of metastasis and growth was transplanted to mice where distally metastasized cancerous focus was observed. Lung cancer cells (LL/2; Dainippon Seiyaku K.K.) were subcutaneously transplanted to mice at the back. The animals were bred until a primary cancerous focus grows up to a predetermined size and the primary focus was then removed surgically. The sample was administered to mice intraperitoneally at 1 mg/mouse/day for 10 days. […]
(§1) After completion of each test, mice were dissected. The number of nodes on the lung surface, in case of test for inhibitory activity to metastasis and growth of cancer, or a weight of the lung, for test for inhibitory activity to growth of metastasized cancerous focus, was measured respectively and compared with control groups (Mann Whetney U test). […] In test for inhibitory activity to growth of metastasized cancerous focus, the lung was measured 0.44±0.28 g (n=6) for the control group while it was measured 0.23±0.08 g (n=6) for the group administered with the plasminogen fragment.

[1] = test system: Lewis lung cancer cells (LL/2); assay: Test for inhibitory activity to growth of metastasized cancerous focus (weight of the lung); assay type: in vivo, C57B1 mice; settings: n=6, control 0.44±0.28
Method: The protein fragments prepared as described above were dissolved in a physiological saline and used as a sample for animal tests. As a system for estimating an inhibitory effect to growth of metastasized cancerous focus, cancer capable of metastasis and growth was transplanted to mice where distally metastasized cancerous focus was observed. Lung cancer cells (LL/2; Dainippon Seiyaku K.K.) were subcutaneously transplanted to mice at the back. The animals were bred until a primary cancerous focus grows up to a predetermined size and the primary focus was then removed surgically. […] As a control, mice were administered with a physiological saline alone as used for dissolving the lyophilized sample (test for inhibitory activity to growth of metastasized cancerous focus).
as §1, with “fragment. […]” for “fragment.”

[2] = test system: bovine aorta endothelial (BAE) cells; assay: Test for inhibitory activity to growth of vascular endothelial cells, bovine aorta endothelial cells; assay type: cell-based; parameters: dose or concentration left out as unconfirmed; settings: cell count after 72 hours, plasminogen fragments
Method: The activity of the plasminogen fragments was also estimated as described by O'Reilly et al. using bovine aorta endothelial (BAE) cells purchased from Sanko Jun-yaku K.K. BAE cells were cultured for maintenance on a 24-well plate (manufactured by Iwaki Glass K.K.) coated with gelatin in a DMEM basal medium containing 10% fetal calf serum (FCS), 3 ng/ml basic FGF (bFGF), 1% glutamine, 1% penicillin and 1% streptomycin at 5% CO2. BAE cells were plated on a 24-well gelatin-coated plate at 12,500 cells/well and cultured on the basal medium deprived of bFGF for 24 hours. […] contained 5% FCS but was deprived of bFGF and the plasminogen fragments were reacted with the cells at 37° C. for 20 minutes. A physiological saline was used as a negative control whereas angiostatin (Angiostatin, manufactured by Technoclone) was used as a positive control. After reaction, the basal medium containing 5% FCS and 2 ng/ml bFGF was added and the cells were cultured at 37° C. for additional 72 hours. The cells were peeled off the well with trypsin/EDTA solution and counted with Coulter counter (manufactured by Coulter).

[3] = parameters: species or system mice; settings: mouse, in vivo, iv
[4] = General pharmacological test, effects on the respiratory and circulatory organs; assay type: in vivo; settings: Beagle dog

B1: plasminogen fragments: plasminogen fragments comprising Kringles 1 to 4 produced by cleavage of plasminogen with PACE4 (protein)
chain: VIMAENRKSSIIIRMRDVVLFEKKVYLSECKTGNGKNYRGTMSKTKNGITCQKWSSTSPHRPRFSPATHPSEGLEENYCRNPDNDPQGPWCYTTDPEKRYDYCDILECEEECMHCSGENYDGKISKTMSGLECQAWDSQSPHAHGYIPSKFPNKNLKKNYCRNPDRELRPWCFTTDPNKRWELCDIPRCTTPPPSSGPTYQCLKGTGENYRGNVAVTVSGHTCQHWSAQTPHTHNRTPENFPCKNLDENYCRNPDGKRAPWCHTTNSQVRWEYCKIPSCDSSPVSTEQLAPTAPPELTPVVQDCYHGDGQSYRGTSSTTTTGKKCQSWSSMTPHRHQKTPENYPNAGLTMNYCRNPDADKGPWCFTTDPSVRWEYCNL
- number of nodes representing metastasis and growth of cancer (Lung cancer cells (LL/2); 1 mg/mouse/day intraperitoneally for 10 days after removal of primary focus, n=6, control 6.3±0.2): 2.1 ± 0.8
- inhibitory activity to metastasis and growth of cancer cells (Lung cancer cells (LL/2); mouse model in which Lewis lung cancer was transplanted): had an inhibitory activity to metastasis and growth of cancer cells
- weight of the lung ([1]; 25 μg/animal intraperitoneally for 10 days, dissected Day 11): 0.23 ± 0.08 g
- weight of the lung ([1]; 1 mg/mouse/day intraperitoneally for 10 days): 0.23 ± 0.08 g
- inhibitory activity to growth of the vascular endothelial cells [2]: no inhibitory activity
- inhibitory activity to growth of the vascular endothelial cells ([2]; listed as plasminogen fragment): inhibitory effects to its growth have not been obtained
- safety in single-dose toxicity test [3]: confirmed for their safety
- safety in general pharmacological test (respiratory and circulatory organs) [4]: confirmed for their safety
